Data on 4 substances can be found in PMC3636998.

The target of one experiment is DGLα (UniProt Q9Y4D2). Nature of the experiment: anti-V5 co-immunoprecipitation, CaMKIIα blot. The settings on record: reference: wild type CaMKIIα; sites T286.
Experiment [1] has as its target DGLα C-terminal domain, 761-1042 (UniProt Q9Y4D2). Description: GST cosedimentation, CaMKII blot. The following applies: reference: non-phosphorylated CaMKIIα; sites T286.
Experiment [2] addresses DGLα-V5 (full-length diacylglycerol lipase-α with a C-terminal V5-epitope tag) (UniProt Q9Y4D2). Nature of the experiment: co-IP.
Experiment [3] addresses GST fusion protein containing the C-terminal domain (CTD; residues 761-1042) of DGLα (UniProt Q9Y4D2). Nature of the experiment: pull-down.

As to CaMKIIα (from UniProt P11798) T286A, in the experiment with DGLα, the percent of reference entry was “weaker; reference 100±5%”.
Regarding “CaMKIIα (from UniProt P11798) Thr286-autophosphorylated CaMKIIα”, the “other: bound CaMKII normalised to input aliquot” value in experiment [1] is recorded as “gained; reference 0.11±0.03”.
In the case of “WT CaMKIIα expressed in HEK293T cells (from UniProt P11798 1-478) (enzyme)”, the interaction with DGLα-V5, percent of WT in experiment [2] stood at 100%.
The substance “purified Thr286-autophosphorylated CaMKIIα (from UniProt P11798 1-478) (enzyme)” showed a CaMKII detected, normalized to the input in experiment [3] of 0.37.
